Target: T1, human TROP2 as used in the Biacore measurements (human, UniProt P09758 27-274)
T1 sequence: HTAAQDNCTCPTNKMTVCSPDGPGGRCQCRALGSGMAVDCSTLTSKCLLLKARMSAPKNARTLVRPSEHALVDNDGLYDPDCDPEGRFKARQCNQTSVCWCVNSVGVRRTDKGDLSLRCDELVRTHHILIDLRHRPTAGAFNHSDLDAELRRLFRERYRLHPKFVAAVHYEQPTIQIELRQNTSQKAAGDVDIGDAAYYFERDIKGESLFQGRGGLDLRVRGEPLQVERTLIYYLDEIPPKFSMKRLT
Assay: SPR (Biacore), format not stated

Kd: 1.1 nM
B1: 2293-C04, affinity matured anti-Trop2 antibody from a synthetic ribosome display human antibody library (antibody, V domains shown)
VH: EVQLVESGGGLVQPGGSLRLSCAASGFNISNKWIHWVRQAPGKGLEWVGWIAPSSGDTDYADSVKGRFTISADTSKNTAYLQMNSLRAEDTAVYYCAREGYNWYWYVLDYWGQGTLVTVSS
VL: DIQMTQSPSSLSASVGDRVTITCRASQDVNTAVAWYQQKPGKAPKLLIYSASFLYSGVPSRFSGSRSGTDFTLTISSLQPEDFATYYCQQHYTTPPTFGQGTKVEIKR
modifications: SEQ ID NO 17 is listed with pAcF at K42; the filing does not say whether the antibody measured by Biacore carried it

— patent US20260053942A1 (Astellas, published 2026)
